Measured values reported in publication PMC3643604.

Molecular target: MED25 ACID/PTOV domain (purified) (human)
Assay: ITC

Substance: ERM 38–68 peptide (from UniProt P41161 38-68)
- Kd: 543 nM
- stoichiometry N: 1
